Experimental data published in publication PMC8413462, “Eukaryotic Box C/D methylation machinery has two non-symmetric protein assembly sites” (Scientific Reports, 2021).

B1: Nop5 from Pyrococcus furiosus (natural protein, P. furiosus, UniProt Q8U4M1 1-402, looked up)
chain: MKAFISENVRGIYAFDENGNLIEKRYFTDKPEKVLDQLLKGEITKDLEELLNSLKEKGYDEFVFEHPELSRRAKELGFSATTEFPNIAGERLRSNPEEFLGENWFEEYYKVGVALTRMRIQEQSGARDKMVIQAIEALDDVDKVINLLVARLREWYSLHFPELDELLPKHPQYVAFVKTVGHRDNINEEVLRELGLSEEKIKKILEAKEKTMGAWMDQTDIEVVRQLAEEIDRLYQLRKKLEDYIDRAMDDVAPNLKALVGAKLAARLISLAGGLRELAMMPSSTIQVLGAEKALFRHLRTGAKPPKHGVIYQYPAINRSPWWQRGKIARALAGKLAIAARVDYFSGEYIAEELKKELEARIREIKEKYPKPPKRKREERKGKKPWKKDKKKKKKKEKPRRR
notes: Nop5, Pyrococcus furiosus, full-length gene amplified from genomic DNA, UniProtKB Q8U4M1; Cloned into pET-M11 with a TEV-cleavable N-terminal His6-Tag; also called Nop5_(2) (homodimer); source: E. coli BL21(DE3), purified (heat step at 80 °C, HisTrap, TEV cleavage, reverse HisTrap); not shown: His6, N-terminal, cleaved

How the values were obtained:
[1] = target: the molecule itself; test: SEC; Nop5 and fibrillarin mixed 1:1.1, 15 min at 80 °C, cooled to room temperature; Superdex S200 Increase 10/300 GL; 20 mM sodium phosphate, 500 mM NaCl, pH 6.6
[2] = target: B1; test: as above; settings: both partners purified
[3] = target: T1, Nop5_(2)–Fib2 complex from Pyrococcus furiosus (P. furiosus, UniProt Q8U4M1 1-402; Q8U4M2 1-227); test: SEC-MALS; RNP assembled with archaeal guide RNA sR26, Snu13 and Nop5_(2)–Fib2; Superdex S200 Increase 10/300 GL, miniDawn TREOS, Optilab T-rex; the guide RNA is part of the particle; monomeric and dimeric RNP peaks partially overlapped; settings: both partners purified
T1 construct: Nop5, Pyrococcus furiosus, full-length, UniProtKB Q8U4M1; fibrillarin, Pyrococcus furiosus, full-length, UniProtKB Q8U4M2; Formed beforehand and then mixed with Snu13 and guide RNA (1:2:1); also called Nop5_(2)–Fib2 tetramer; source: E. coli BL21(DE3), each protein purified; mixed 1:1.1, 15 min at 80 °C, complex purified by size-exclusion chromatography; not shown: His6, N-terminal, cleaved; …
T1 sequence (looked up) 1: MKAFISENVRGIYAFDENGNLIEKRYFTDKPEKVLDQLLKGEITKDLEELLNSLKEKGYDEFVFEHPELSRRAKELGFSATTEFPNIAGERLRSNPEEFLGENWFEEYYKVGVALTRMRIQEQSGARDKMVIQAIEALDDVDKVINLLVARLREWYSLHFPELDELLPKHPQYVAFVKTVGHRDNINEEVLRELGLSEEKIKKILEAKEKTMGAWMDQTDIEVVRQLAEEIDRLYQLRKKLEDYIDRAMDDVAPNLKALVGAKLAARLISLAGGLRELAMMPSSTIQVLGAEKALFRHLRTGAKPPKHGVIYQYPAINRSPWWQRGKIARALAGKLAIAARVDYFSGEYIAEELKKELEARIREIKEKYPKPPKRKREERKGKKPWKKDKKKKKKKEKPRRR
T1 sequence (looked up) 2: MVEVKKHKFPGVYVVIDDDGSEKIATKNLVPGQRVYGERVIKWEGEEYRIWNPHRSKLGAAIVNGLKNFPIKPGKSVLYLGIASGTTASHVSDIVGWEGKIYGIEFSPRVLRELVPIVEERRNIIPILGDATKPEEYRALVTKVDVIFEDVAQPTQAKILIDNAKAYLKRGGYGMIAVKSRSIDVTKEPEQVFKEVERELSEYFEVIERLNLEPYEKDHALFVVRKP

[4] = target: T1, Nop5_(2)–Fib2 complex from Pyrococcus …; test: SEC-MALS; RNP assembled with yeast guide RNA snR51, Snu13 and Nop5_(2)–Fib2; Superdex S200 Increase 10/300 GL, miniDawn TREOS, Optilab T-rex; the guide RNA is part of the particle; settings: both partners purified

## B1
[1]
  binding result: binds

B2: fibrillarin from Pyrococcus furiosus (enzyme, P. furiosus, UniProt Q8U4M2 1-227, looked up)
chain: MVEVKKHKFPGVYVVIDDDGSEKIATKNLVPGQRVYGERVIKWEGEEYRIWNPHRSKLGAAIVNGLKNFPIKPGKSVLYLGIASGTTASHVSDIVGWEGKIYGIEFSPRVLRELVPIVEERRNIIPILGDATKPEEYRALVTKVDVIFEDVAQPTQAKILIDNAKAYLKRGGYGMIAVKSRSIDVTKEPEQVFKEVERELSEYFEVIERLNLEPYEKDHALFVVRKP
notes: fibrillarin, Pyrococcus furiosus, full-length gene amplified from genomic DNA, UniProtKB Q8U4M2; Cloned into pET-M11 with a TEV-cleavable N-terminal His6-Tag; source: E. coli BL21(DE3), purified (heat step at 80 °C, HisTrap, TEV cleavage, reverse HisTrap); not shown: His6, N-terminal, cleaved
[2]
  binding result: binds

B3: Snu13 from Saccharomyces cerevisiae (natural protein, S. cerevisiae, UniProt P39990 1-126, looked up)
chain: MSAPNPKAFPLADAALTQQILDVVQQAANLRQLKKGANEATKTLNRGISEFIIMAADCEPIEILLHLPLLCEDKNVPYVFVPSRVALGRACGVSRPVIAASITTNDASAIKTQIYAVKDKIETLLI
notes: Snu13, S. cerevisiae, full-length SNU13 gene, codon-optimised synthetic gene, UniProtKB P39990; Cloned into pET-M11 with a TEV-cleavable N-terminal His6-Tag; also called Sc Snu13; source: E. coli BL21 (DE3), purified (HisTrap, QTrap flow-through, TEV cleavage, reverse HisTrap); not shown: His6, N-terminal, cleaved
[3]
  stoichiometry N: 2 copies per Nop5_(2)–Fib2 tetramer
[4]
  stoichiometry N: 1 copies per Nop5_(2)–Fib2 tetramer
